Test results taken from patent US20170355757A1 (Regeneron, published 2017).

T1: monkey C5-mmh (monkey, UniProt P01031 19-1676 (human entry), limits assumed)
T1 construct: Recombinant monkey C5 with a C-terminal myc-myc-hexahistidine tag
T1 chain: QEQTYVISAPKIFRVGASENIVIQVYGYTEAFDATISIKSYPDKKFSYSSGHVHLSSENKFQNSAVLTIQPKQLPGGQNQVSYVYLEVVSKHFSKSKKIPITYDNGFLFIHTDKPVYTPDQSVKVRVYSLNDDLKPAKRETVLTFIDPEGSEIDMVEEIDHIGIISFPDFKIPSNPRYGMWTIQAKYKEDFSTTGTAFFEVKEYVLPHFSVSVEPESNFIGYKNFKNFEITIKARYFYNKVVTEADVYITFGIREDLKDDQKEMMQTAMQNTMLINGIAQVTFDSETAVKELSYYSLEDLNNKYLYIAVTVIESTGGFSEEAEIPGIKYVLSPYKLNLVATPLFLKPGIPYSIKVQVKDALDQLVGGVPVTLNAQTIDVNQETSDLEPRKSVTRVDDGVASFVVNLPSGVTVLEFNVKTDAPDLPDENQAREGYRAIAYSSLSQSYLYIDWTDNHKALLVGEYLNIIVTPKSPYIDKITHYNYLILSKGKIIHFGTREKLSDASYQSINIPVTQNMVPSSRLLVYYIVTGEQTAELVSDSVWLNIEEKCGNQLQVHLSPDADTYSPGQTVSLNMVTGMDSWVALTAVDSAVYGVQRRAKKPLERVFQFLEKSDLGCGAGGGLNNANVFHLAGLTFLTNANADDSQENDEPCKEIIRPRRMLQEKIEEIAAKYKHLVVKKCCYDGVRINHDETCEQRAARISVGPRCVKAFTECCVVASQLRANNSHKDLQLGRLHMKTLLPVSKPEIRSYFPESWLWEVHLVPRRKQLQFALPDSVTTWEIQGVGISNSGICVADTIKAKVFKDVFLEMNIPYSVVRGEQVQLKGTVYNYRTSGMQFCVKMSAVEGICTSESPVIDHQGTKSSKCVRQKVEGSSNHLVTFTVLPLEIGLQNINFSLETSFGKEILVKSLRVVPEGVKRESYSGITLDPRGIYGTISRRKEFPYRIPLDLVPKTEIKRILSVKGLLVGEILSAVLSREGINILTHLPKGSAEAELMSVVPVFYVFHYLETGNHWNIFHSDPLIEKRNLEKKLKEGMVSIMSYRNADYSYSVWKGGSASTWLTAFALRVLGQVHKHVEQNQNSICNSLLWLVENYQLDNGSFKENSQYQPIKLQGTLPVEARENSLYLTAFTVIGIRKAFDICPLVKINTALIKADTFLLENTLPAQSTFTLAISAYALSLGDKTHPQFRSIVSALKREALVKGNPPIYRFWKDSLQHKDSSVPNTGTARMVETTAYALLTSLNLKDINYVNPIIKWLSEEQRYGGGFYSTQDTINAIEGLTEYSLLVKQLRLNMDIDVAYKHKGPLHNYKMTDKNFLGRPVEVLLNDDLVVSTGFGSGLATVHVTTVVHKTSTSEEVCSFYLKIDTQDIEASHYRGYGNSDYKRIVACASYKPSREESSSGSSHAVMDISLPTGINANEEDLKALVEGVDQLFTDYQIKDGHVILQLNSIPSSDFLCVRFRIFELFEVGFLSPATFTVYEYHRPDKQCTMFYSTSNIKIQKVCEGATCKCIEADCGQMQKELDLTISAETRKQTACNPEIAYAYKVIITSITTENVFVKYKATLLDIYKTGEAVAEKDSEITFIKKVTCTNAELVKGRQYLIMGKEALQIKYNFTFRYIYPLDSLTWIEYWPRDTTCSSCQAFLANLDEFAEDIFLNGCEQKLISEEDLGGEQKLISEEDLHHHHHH


What was measured:
human C5 = target: T2, human C5 (human, UniProt P01031 19-1676); experiment: SPR, mAb captured via anti-hFc, dissociation at pH7.4 vs pH6.0, 25C
T2 construct: Bought human C5 (EMD #204888, said elsewhere to be purified from plasma); also called hC5; complement component 5
Method: Effect of pH on the rate of dissociation of recombinant human C5 bound to purified anti-C5 monoclonal antibodies was determined using a real-time surface plasmon resonance biosensor using a Biacore T200 instrument. The Biacore sensor surface was first derivatized by amine coupling with a monoclonal mouse anti-human Fc antibody (GE, # BR-1008-39) to capture anti-C5 monoclonal antibodies expressed with human IgG4 Fc. All Biacore binding studies were performed using two running buffers PBS-T, pH7.4 (0.01M Na₂HPO₄/NaH₂PO₄, 0.15M NaCl, 0.05% v/v Tween-20, adjusted to pH7.4) and PBS-T, pH6.0 (0.01M Na₂HPO₄/NaH₂PO₄, 0.15M NaCl, 0.05% v/v Tween-20, adjusted to pH6.0). […] Binding dissociative half-lives (t %) were calculated from kd as: […]

monkey C5-mmh = target: T1, monkey C5-mmh; experiment: SPR, mAb captured via anti-hFc, 37C
Method in brief: (§1)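 First, the antibodies were captured through their human Fc on an anti-human Fc surface. Next, C5 reagents were injected for 3 min and dissociation in HBST buffer was recorded for 8 min. Finally, sensorgrams were fitted to a 1:1 model and KD derived as kd/ka.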

human C5 R885C-mmh [1] = target: T3, human C5 R885C-mmh (human, UniProt P01031 19-1676); experiment: SPR, mAb captured via anti-hFc, 37C
T3 construct: also called human C5 variant R885C
Method in brief: as §1

human C5 R885H-mmh [2] = target: T4, human C5 R885H-mmh (human, UniProt P01031 19-1676); experiment: SPR, mAb captured via anti-hFc, 37C
T4 construct: also called human C5 variant R885H
Method in brief: as §1

human C5 R885C-mmh [3] = target: T3, human C5 R885C-mmh; experiment: SPR, mAb captured via anti-hFc, 25C
Method in brief: as §1

human C5 R885H-mmh [4] = target: T4, human C5 R885H-mmh; experiment: SPR, mAb captured via anti-hFc, 25C
Method in brief: as §1

Row | t1/2 Ratio pH7.4/pH6.0 (human C5) | 100 nM monkey C5-mmh Bound (RU) (monkey C5-mmh) | Kd (monkey C5-mmh) [nM] | koff (monkey C5-mmh) [s⁻¹] | kon (monkey C5-mmh) [M⁻¹ s⁻¹] | t1/2 (monkey C5-mmh) [min] | 100 nM Human C5 R885C-mmh Bound (RU) (human C5 R885C-mmh [1]) | Kd (human C5 R885C-mmh [1]) [nM] | koff (human C5 R885C-mmh [1]) [s⁻¹] | kon (human C5 R885C-mmh [1]) [M⁻¹ s⁻¹] | t1/2 (human C5 R885C-mmh [1]) [min] | 100 nM Human C5 R885H-mmh Bound (RU) (human C5 R885H-mmh [2]) | Kd (human C5 R885H-mmh [2]) [nM] | koff (human C5 R885H-mmh [2]) [s⁻¹] | kon (human C5 R885H-mmh [2]) [M⁻¹ s⁻¹] | t1/2 (human C5 R885H-mmh [2]) [min] | 100 nM Human C5 R885C-mmh Bound (RU) (human C5 R885C-mmh [3]) | Kd (human C5 R885C-mmh [3]) [nM] | koff (human C5 R885C-mmh [3]) [s⁻¹] | kon (human C5 R885C-mmh [3]) [M⁻¹ s⁻¹] | Binder | further results
1 | ≤ 0.3 | 137 | 0.133 | 5.5e-05 | 412000 | 210 | 68 | 1.74 | 0.000975 | 561000 | 12 | 82 | 1.49 | 0.000948 | 638000 | 12 | 168 | 0.289 | 0.000169 | 586000 | H4H12159P (antibody, human IgG4, V domains shown, Human IgG4 Fc with S108P hinge mutation (H4H)) VH: QVQLVESGGGVVQPGRSLRLSCGASGFTFSTYGMHWVRQAPGKGLEWVAVIWDDGNNKYYADSVKGRFTISRDNSKNTLYLQMNSLRAEDTAVYYCARDSEVAPVGDYWGQGTLVTVSS VL: DIQMTQSPSTLSASVGDRVTIICRASQSINRWLAWYQQKPGKAPKLLIYKASSLESGVPSRFSGSGSGTEFTLTISSLQPDDFAAYYCQQYNDYSYTFGQGTKLEIK | t1/2 (human C5 R885C-mmh [3]): 68 min; 100 nM Human C5 R885H-mmh Bound (RU) (human C5 R885H-mmh [4]): 177 RU; Kd (human C5 R885H-mmh [4]): 0.25 nM; koff (human C5 R885H-mmh [4]): 0.000176 s⁻¹; kon (human C5 R885H-mmh [4]): 706000 M⁻¹ s⁻¹; t1/2 (human C5 R885H-mmh [4]): 66 min
2 | 2 | 195 | 8.88 | 0.00207 | 233000 | 6 | 69 | 2.78 | 0.000791 | 284000 | 15 | 74 | 1.91 | 0.0008 | 419000 | 14 | 253 | 0.534 | 9.49e-05 | 178000 | H4H11686N (antibody, V domains shown, also called H2M11686N) VH: QVQLVESGGGLVKPGGSLRLSCAASGFTFSDYYMSWIRQAPGKGLEWVSYISSSGNTIKYADSMKGRFTISRDNAKKSLFVEMNSLRAEDTAVYYCARYKSSSDYFDHWGQGTLVTVSS VL: EIVLTQSPATLSLSPGERATLSCRASQSVRSYLAWYQQKPGQAPRLLIYDASNRATAIPARFSGSGSGTDFTLTISSLEPEDLAVYYCQQSGNWPLTFGGGTKVEIK | t1/2 (human C5 R885C-mmh [3]): 122 min; 100 nM Human C5 R885H-mmh Bound (RU) (human C5 R885H-mmh [4]): 259 RU; Kd (human C5 R885H-mmh [4]): 0.491 nM; koff (human C5 R885H-mmh [4]): 0.000106 s⁻¹; kon (human C5 R885H-mmh [4]): 216000 M⁻¹ s⁻¹; t1/2 (human C5 R885H-mmh [4]): 109 min
